The supplement of paper PMC9170038

Test system: MS2 coat protein
Assay: apparent KD of MS2 coat protein; designed switch direction (-1 OFF switch, 1 ON switch): -1; higher = weaker reporter binding
Method in brief: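 On Illumina chips, designed RNA switches with common flanks were made by stalled E. coli RNA polymerase. Titrations with SNAP-549-labelled MS2 coat protein, doubling from 0.7 or 1.5 nM to 3 µM, were done with no input, with 200 uM small-molecule ligand, or with an oligonucleotide input. Apparent KD is the median per design over clusters, from curve fits of normalised cluster fluorescence.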

[1] = input ligand: microRNA oligo, concentration not stated
[2] = Eterna round: R95, input ligand: microRNA oligo, concentration not stated

Row | Sequence | apparent KD of MS2 coat protein (input ligand: FMN 200 uM) [nM] | apparent KD of MS2 coat protein (input ligand: none) [nM] | apparent KD of MS2 coat protein [1] [nM] | apparent KD of MS2 coat protein [2] [nM]
1 | AGAUUACAUGAGGAUAUCGUAUUGGAUAUAGUGCGAGAAGGCAUGACAUGAGGAUCACCCAUGUAGUGUUGGGA [JR_Ex6_Sub010] (Eterna round: R97, puzzle: Exclusion 6) | 117 | 187 | – | –
2 | AGAUUGCGGCAAGGAUAUCUUUGUCAACUUAAAACAUGAGGAUCACCCAUGUGCAUCUUCGUGUGAGAGAAGGUGCGGCGAUCC [Raesredi] (Eterna round: R96, puzzle: Exclusion NG 2) | 1430 | 687 | 368 | –
3 | AGAUUUGUAGUGAGGAUAUAGGAUGAGUAGUAGUACUAGAAGGCACAUGAGGAUCACCCAUGUAAGUGAAUGAG [Exclusion 4 mod test] (Eterna round: R97, puzzle: Brourd's mod of Exclusion 4) | 22.6 | 20.2 | – | –
4 | AGCAAAUCAGGAUAUGUACUGGACGACAUGAGGAUCACCCAUGUGAUUCAGUGCGCGAGAACAGAAGGGAUUCGCU [Isor] (puzzle: Exclusion 5) | – | – | – | 15.4
5 | AGCAAGCAAUAGGAUAUGCCUGCAAGCUUGCACGCAGAAGGAUUGACUUGAGGAUCACCCAAGUGGGCUCCAAA [Xemaesti] (Eterna round: R97, puzzle: Exclusion 6) | 356 | 83.6 | – | –
6 | AGCAGACGAGGAUAUAGAUUUAAGUACAUGAGGAUCACCCAUGUACAUAUGUAUUUAGAUUUAGAAGGCGUCUGCU [E5/16-A1] (Eterna round: R97, puzzle: Exclusion 5) | 27.7 | 28.6 | – | –
7 | AGCAGACGAGGAUAUAGAUUUGUUGACAUGAGGAUCACCCAUGUGAUCGAUCUAUCAUAUUUAGAAGGUGUCUGCU [JR_Ex5_Sub041] (Eterna round: R97, puzzle: Exclusion 5) | 18.6 | 14.3 | – | –
8 | AGCAUGUAAGGAUAUGCAAGUGGCACGGAUAGUACCAGAAAGCAGAAGGUACAUGAGGAUCACCCAUGUGCUCC [Anenen] (Eterna round: R96, puzzle: Exclusion 4) | 233 | 80.1 | 67.2 | –
9 | AGCCACAGAGGAUAUACAUACAUCCAGUAGUUAAGAAAACUACAUGAGGAUCACCCAUGUAGAAGGCUGUGGCA [Omei Ex2 BD B5] (Eterna round: R97, puzzle: Exclusion 2) | 507 | 101 | – | –
10 | AGCCACAGAGGAUAUACAUACAUCCAGUAGUUAAGAAUACAACAUGAGGAUCACCCAUGUAGAAGGCUGUGGCA [Omei Ex2 BD B9] (Eterna round: R97, puzzle: Exclusion 2) | 348 | 103 | – | –
11 | AGCCACAGAGGAUAUACAUACAUCCAGUAGUUAAGAAUACUACAUGAGGAUCACCCAUGUAGAAGGCUGUGGCA [Omei Ex2 BD B6] (Eterna round: R97, puzzle: Exclusion 2) | 383 | 84.3 | – | –
12 | AGCCACAGAGGAUAUACAUACAUCCAGUAGUUGAGAAAACUACAUGAGGAUCACCCAUGUAGAAGGCUGUGGCA [Omei Ex2 BD B4] (Eterna round: R97, puzzle: Exclusion 2) | 27.4 | 321 | – | –
13 | AGCCAUCUUGUGAGGAUAUGCCCUGGUCAAAGCCGGUAGAAGGUACAUGAGGAUCACCCAUGUGAACUAAUCUA [Eternabot (L1) Solution 90] (Eterna round: R97, puzzle: Brourd's mod of Exclusion 4) | 14.1 | 16.2 | – | –
14 | AGCCCUGCAGGAUAUGCCCGGGAUAACAUGAGGAUCACCCAUGUGACUGAUUGUUAUUCUGCAGAAGGGCAUGGGA [JL-EX5-4.14 ViennaUCT mod] (Eterna round: R97, puzzle: Exclusion 5) | 335 | 494 | – | –
15 | AGCCUACAUGAGGAUCACCCAUGUCAGGAUAUCUCGCGGCGUGUCAAGUUCACACUGCAGAGAAGGGACUCGGG [Edsoriri] (puzzle: Exclusion 1) | – | – | – | 51.4
